Where two headings read alike, the source gives them in different places.
What was measured:
Assay in all cases: co-sedimentation
[1] = target: paclitaxel-stabilized microtubules (bovine brain tubulin) (bovine) (UniProt Q6B856)
[2] = target: paclitaxel-stabilized microtubules (bovine brain tubulin) (bovine) (UniProt Q6B856); remark: listed apart in the source
[3] = target: paclitaxel-stabilized microtubules (bovine brain tubulin) (bovine) (UniProt Q6B856); remark: listed apart in the source
[4] = target: paclitaxel-stabilized microtubules (bovine brain tubulin) (bovine) (UniProt Q6B856); remark: listed apart in the source
[5] = target: paclitaxel-stabilized microtubules (bovine brain tubulin) (bovine) (UniProt Q6B856); remark: listed apart in the source

paclitaxel-stabilized microtubules (bovine brain tubulin) (bovine), sequence (Q6B856 whole entry, looked up): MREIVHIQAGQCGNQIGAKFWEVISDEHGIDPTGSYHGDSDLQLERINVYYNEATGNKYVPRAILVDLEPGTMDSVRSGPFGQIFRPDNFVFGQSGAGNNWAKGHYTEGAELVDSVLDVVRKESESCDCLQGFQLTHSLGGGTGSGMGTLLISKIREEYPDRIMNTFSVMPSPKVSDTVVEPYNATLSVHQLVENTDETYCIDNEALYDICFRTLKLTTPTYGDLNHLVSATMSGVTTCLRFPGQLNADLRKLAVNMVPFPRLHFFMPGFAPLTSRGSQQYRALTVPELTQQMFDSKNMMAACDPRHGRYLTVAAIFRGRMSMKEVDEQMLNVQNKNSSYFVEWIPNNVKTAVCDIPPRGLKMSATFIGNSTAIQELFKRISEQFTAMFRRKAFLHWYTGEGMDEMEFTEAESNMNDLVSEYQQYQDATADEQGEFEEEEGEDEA

Substance | Kd [1] [nM] | Kd [2] [nM] | Kd [3] [nM] | stoichiometry N [3] | stoichiometry N (motor bound per tubulin dimer) [3] | Kd [4] [nM] | stoichiometry N (motor per tubulin dimer) [3] | Kd [5] [nM]
Cin8-EL8 (tagless): monomeric Cin8 motor with the loop-8 insert of Eg5 (domain or fragment) | 2900 | 3000 | 100 | 1.4 | 1 | – | – | –
Eg5-CL8-MBP (MBP-His6-TEV-Eg5-CL8) (from UniProt P27895 261-359) (domain or fragment) | – | – | 100 | – | – | 100 | 1 | –
Eg5-KL8: monomeric Eg5 motor domain with the loop-8 insert of Kip1 (domain or fragment) | – | – | 100 | 1.3 | – | – | – | 440
wild type monomeric Cin8 motor domain with thioredoxin tag (Cin8-trx) (domain or fragment) | – | – | 7 | 2.2 | – | – | – | –

Reference: doi:10.1101/525329
